The numbers were not newly measured in publication PMC3409362, which cites them from elsewhere.

Where two headings read alike, the source gives them in different places.

Series [1] has as its target F-actin (Oryctolagus cuniculus) (UniProt P68135).
Series [2] has the same target. The source holds these as a separate data set.

Usually Kd stands for the constant that tells how readily two partners part at equilibrium. For “V-ATPase B1 subunit (from UniProt P15313)”, the equilibrium dissociation constant (Kd) in series [1] was 150 nM.
For “V-ATPase B2 subunit (from UniProt P21281)”, the dissociation constant Kd in series [2] was 150 nM.
